These results are taken from paper PMC10937945.

In this data set the target is HTNV-L (full-length Hantaan virus polymerase, L protein) (Hantaan virus (strain 76-118/Korean …, UniProt P23456 1-2151)). Briefly: cryo-EM; 30 mM HEPES pH 8, 250 mM NaCl, 5 mM TCEP ([…]; temperature not stated. Particulars: protein: recombinant; tags: N-terminal His6.
Chain of HTNV-L (full-length Hantaan virus polymerase, L protein) (Hantaan virus (P23456 whole entry): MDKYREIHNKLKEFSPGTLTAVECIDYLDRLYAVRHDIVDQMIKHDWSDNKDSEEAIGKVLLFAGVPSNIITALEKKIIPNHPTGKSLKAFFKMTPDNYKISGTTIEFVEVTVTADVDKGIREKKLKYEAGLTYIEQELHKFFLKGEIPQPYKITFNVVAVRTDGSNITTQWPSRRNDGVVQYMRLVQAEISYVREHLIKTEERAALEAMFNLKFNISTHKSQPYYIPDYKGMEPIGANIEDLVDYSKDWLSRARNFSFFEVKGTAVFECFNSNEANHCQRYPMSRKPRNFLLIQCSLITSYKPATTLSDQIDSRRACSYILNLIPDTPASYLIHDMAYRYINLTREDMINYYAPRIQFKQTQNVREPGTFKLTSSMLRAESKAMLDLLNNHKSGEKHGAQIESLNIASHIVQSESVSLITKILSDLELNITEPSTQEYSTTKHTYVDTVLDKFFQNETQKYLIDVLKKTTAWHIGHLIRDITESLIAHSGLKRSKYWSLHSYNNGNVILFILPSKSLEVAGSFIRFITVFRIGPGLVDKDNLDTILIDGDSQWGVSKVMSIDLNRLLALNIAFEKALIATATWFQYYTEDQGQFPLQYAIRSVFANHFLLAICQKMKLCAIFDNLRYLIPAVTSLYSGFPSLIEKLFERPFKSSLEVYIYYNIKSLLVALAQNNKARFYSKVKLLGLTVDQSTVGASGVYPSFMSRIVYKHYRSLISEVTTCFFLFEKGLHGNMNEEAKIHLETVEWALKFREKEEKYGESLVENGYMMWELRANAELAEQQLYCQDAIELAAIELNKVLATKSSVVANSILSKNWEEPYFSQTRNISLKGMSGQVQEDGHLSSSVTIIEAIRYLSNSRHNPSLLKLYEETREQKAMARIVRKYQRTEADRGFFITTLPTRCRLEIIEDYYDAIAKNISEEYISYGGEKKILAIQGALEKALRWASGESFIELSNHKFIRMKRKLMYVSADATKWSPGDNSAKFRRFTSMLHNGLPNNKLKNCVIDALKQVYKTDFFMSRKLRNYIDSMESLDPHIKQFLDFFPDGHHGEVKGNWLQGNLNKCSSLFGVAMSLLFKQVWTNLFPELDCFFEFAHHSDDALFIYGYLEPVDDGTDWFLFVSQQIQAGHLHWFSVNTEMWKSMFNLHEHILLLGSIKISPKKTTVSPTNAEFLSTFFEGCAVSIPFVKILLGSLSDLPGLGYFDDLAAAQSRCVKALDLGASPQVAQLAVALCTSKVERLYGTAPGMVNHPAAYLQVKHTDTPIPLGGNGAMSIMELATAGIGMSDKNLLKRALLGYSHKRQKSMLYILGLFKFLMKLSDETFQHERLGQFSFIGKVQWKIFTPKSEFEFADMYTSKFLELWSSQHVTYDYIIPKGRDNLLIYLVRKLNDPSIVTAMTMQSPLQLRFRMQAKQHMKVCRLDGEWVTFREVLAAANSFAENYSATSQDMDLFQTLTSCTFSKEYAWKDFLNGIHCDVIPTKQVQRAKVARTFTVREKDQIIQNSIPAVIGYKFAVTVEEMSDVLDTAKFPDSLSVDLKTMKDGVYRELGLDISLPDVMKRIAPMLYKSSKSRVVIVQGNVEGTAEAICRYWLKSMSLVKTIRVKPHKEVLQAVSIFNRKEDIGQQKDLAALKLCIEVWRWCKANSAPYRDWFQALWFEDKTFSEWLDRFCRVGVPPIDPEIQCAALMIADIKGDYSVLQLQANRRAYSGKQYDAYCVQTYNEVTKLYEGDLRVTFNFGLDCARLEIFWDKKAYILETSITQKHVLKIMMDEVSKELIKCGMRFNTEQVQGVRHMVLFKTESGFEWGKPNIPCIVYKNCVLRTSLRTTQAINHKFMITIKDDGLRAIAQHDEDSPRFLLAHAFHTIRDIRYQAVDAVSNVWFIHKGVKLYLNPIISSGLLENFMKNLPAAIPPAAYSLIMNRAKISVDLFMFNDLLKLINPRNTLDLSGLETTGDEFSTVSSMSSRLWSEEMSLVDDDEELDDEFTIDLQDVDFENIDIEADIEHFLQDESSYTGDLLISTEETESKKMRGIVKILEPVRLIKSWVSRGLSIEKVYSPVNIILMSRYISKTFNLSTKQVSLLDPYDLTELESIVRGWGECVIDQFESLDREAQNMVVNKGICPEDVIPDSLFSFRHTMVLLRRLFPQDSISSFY

B1: 5'vRNA (ssRNA)
RNA: UAGUAGUAGACACCGCAAGAUGUUA
As to B1, the binding result is recorded as “binds”.
